Positions count from the first letter of the chain named.

The target of assay [1] is T1, human MCP-3 (human, UniProt P80098 24-99).
T1 construct: also called CCL7
In words: BIAcore.

The target in assay [2] is T2, human Eotaxin 3 (human, UniProt Q9Y258 24-94).
T2 sequence (looked up): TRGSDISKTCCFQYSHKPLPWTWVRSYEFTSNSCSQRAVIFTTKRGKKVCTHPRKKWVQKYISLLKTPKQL
In words: BIAcore. A general note: SPR reads the build-up and loss of mass on a sensor chip optically.

For assay [3], the target named is T3, human Eotaxin 1 (human, UniProt P51671 24-97). The assay is described as follows: BIAcore.
Assay [4] has as its target T4, human Eotaxin 2 (human, UniProt O00175 27-104, limits assumed).
T4 sequence (looked up): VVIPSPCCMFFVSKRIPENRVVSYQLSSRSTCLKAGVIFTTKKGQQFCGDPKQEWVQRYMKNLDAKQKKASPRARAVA
In words: BIAcore.

Assay [5] deals with T5, human MCP-4 (human, UniProt Q99616 24-98, limits assumed).
T5 construct: also called CCL13
In words: BIAcore.

The target of assay [6] is T1, human MCP-3. The assay is described as follows: Biacore, IgG capture mode.
Assay [7] concerns the target T2, human Eotaxin 3. In words: Biacore, IgG capture mode.
Assay [8] has as its target T4, human Eotaxin 2. The assay is described as follows: Biacore, IgG capture mode.
Assay [9] has as its target T5, human MCP-4. The assay is described as follows: Biacore, IgG capture mode.
Assay [10] concerns the target T3, human Eotaxin 1. In words: BioVeris solution equilibrium titration. As for the experimental part: Solution Equilibrium Titration (SET) Method for KD Determination and Cross-Reactivity Studies Using BioVeris. Affinity determination in solution was basically performed as described in the literature (Friguet et al., 1985). In order to improve the sensitivity and accuracy of the SET method, it was transferred from classical ELISA to ECL based BioVeris technology (Haenel et al., 2005, accepted for publication in Analytical Biochemistry). 1 mg/ml goat-anti-human (Fab)₂ or goat-anti-mouse IgG, Fc fragment specific antibodies (Jackson Immuno Research) were labelled with BV-tag™ NHS-Ester (Bioveris Europe, Witney, Oxfordshire, UK) according to manufacturer's instructions. The experiments were carried out in polypropylene microtiter plates and PBS pH 7.4 with 0.5% BSA and 0.02% Tween 20 as assay buffer. Unlabeled antigen was diluted in 4ⁿ series: For human and cyno MCP-1 a concentration range of 10 pM to 40 nM and for cross-reactivity controls (Eotaxin and MCP-2) a concentration range of 40 pM to 160 nM was chosen. Wells without antigen were used to determine Smax values. After addition of 100 pM Fab or IgG (final concentration in 75 μL final volume), the mixture was incubated for 2 hours at RT. […]
Specificity Testing Using BioVeris. Beside the affinity also the specificity, especially the cross-reactivity to Eotaxin and MCP-2, was analyzed in solution equilibrium titration (SET) using BioVeris. […]

Assay [11] addresses T6, human MCP-2 (human, UniProt P80075 24-99).
T6 construct: also called CCL8
T6 sequence (looked up): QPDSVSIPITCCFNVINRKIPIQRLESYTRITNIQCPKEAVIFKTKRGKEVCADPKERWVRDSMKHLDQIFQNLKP
In words: 125I-MCP-2 binding to CCR2 on Thp-1 cells, radioligand competition. For orientation: Loss of bound radioactivity is the signal in a displacement assay; it reports binding, not function.

T1 sequence (P80098 24-99 limits assumed): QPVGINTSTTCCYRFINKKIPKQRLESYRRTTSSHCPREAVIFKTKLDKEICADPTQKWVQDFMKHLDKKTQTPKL
T3 sequence (P51671 24-97 limits assumed): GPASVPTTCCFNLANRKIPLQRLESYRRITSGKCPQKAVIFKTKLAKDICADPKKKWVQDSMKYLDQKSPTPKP
T5 sequence (Q99616 24-98 limits assumed): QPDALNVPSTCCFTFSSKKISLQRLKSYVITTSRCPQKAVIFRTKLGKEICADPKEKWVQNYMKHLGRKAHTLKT

B1: CNTO 888 (antibody, V domains shown)
VH: QVQLVQSGAEVKKPGSSVKVSCKASGGTFSSYGISWVRQAPGQGLEWMGGIIPIFGTANYAQKFQGRVTITADESTSTAYMELSSLRSEDTAVYYCARYDGIYGELDFWGQGTLVTVSS
VL: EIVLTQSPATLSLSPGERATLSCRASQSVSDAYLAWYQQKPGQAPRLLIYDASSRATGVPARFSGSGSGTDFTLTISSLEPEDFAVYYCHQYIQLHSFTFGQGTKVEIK
notes: Fully human IgG1 kappa
As to B1, the binding result in assay [1], in [2], in assay [3], in [4] and in [5] was “no binding” each time.

B2: MOR03790 IgG1 (antibody, V domains shown)
VH: B1 VH with Q3E
VL: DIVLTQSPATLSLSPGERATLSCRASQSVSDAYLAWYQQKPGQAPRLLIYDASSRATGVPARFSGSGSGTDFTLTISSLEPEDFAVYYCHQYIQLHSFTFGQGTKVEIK
notes: Human IgG1; also called MOR3790 IgG1; MOR3790k IgG
In the case of B2, the binding result is listed as “no binding (tested: 100 nM)” in [6]; “no binding (tested: 100 nM)” in assay [7]; “no binding (tested: 100 nM)” in assay [8]; “no binding (tested: 100 nM)” in assay [9]; “no binding (tested: 40 pM to 160 nM)” in [10].

B3: MOR03754 Fab (Fab, V domains shown)
VH: QVQLVESGGGLVQPGGSLRLSCAASGFTFRSYGMSWVRQAPGKGLEWVSSIEHKWSGYATTYAASVKGRFTISRDNSKNTLYLQMNSLRAEDTAVYYCARFEFTPWTYFDFWGQGTLVTVSS
VL: DIELTQPPSVSVAPGQTARISCSGDNLGKKYVYWYQQKPGQAPVLVIYDDDNRPSGIPERFSGSNSGNTATLTISGTQAEDEADYYCQSYTAQSSASFGGGTKLTVL
The term IC50 denotes the concentration that inhibits the measured activity by half. Low readings indicate higher potency, high ones lower potency. Regarding B3, in assay [11], the IC50 was not below 2000 nM.

The values above are taken from patent US20100254992A1 (published 2010).
